One molecule from PMC8144621, “A two-hybrid system reveals previously uncharacterized protein–protein interactions within the Helicobacter pylori NIF iron–sulfur maturation system” (Scientific Reports, 2021) can be followed below.

Series [1] concerns the molecule itself. Kind of series: cross-linking; purified proteins (15 µM) incubated alone or together for 60 min at 25 °C with 10 mM dimethyl suberimidate (DMS), no ATP; SDS 4-20% gradient PAGE, Coomassie.
The target of series [2] is T1, ApbC-(His)6, purified recombinant (Helicobacter pylori strain 26695, UniProt O24999 1-368).
T1 construct: H. pylori strain 26695 ApbC/HP0207, whole native hp0207 (apbC) ORF without its stop codon, cloned NdeI-XhoI in pET21b (pET-ApbC); predicted mass with tag 41.1 kDa; The name ApbC-(His)6 and the cloning without stop codon in pET21b put the tag at the C-terminus; the methods of the cross-linking call the protein 'native ApbC'; also called hexahistidine tagged-ApbC^WT; source: E. coli BL21 RIL, …
T1 sequence (looked up): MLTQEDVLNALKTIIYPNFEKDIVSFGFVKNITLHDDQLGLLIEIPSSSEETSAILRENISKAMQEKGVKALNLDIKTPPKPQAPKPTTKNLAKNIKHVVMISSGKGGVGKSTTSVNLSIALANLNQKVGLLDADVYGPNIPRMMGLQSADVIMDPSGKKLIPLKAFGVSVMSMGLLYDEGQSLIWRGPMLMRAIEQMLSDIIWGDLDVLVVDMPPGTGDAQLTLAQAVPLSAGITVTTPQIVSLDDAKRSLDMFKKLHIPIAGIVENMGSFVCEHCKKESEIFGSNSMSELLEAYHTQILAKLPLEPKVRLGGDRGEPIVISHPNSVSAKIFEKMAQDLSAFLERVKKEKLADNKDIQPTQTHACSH
The series is described as above. Particulars: both partners purified.

B1: Nfu (HP1492), purified recombinant (natural protein, Helicobacter pylori, UniProt O26025 1-89, looked up)
chain: MIEFSDEDLQKPVRIVIEKIRPYLLKDGGNIEVLGVKSMKIYVALEGACKTCSSSKITLKNVIERQLKMDIHPNLEVVCLENAKEFDKL
notes: H. pylori Nfu/HP1492; also called recombinant Nfu; HpNfu
A word on the stoichiometry N: it is a count of units in the complex or per binding partner. Turning to B1, the “stoichiometry N” value in series [1] was 2. The binding result in series [2] was “binds”.
